# Test results as given in the supplement of paper PMC9170038.
# Tested on: MS2 coat protein
# Assay: apparent KD of MS2 coat protein; higher = weaker reporter binding
# Details: Eterna round: R107
# Method: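 RNA-MaP round R107: designed RNA switches with theophylline, tryptophan, arginine or FMN aptamers are transcribed on-chip within common flanks. They are titrated with SNAP-549-labelled MS2 coat protein in RNA-MaP buffer (100 mM Tris pH 7.5, 80 mM KCl, 4 mM MgCl2), without ligand or with the indicated ligand. Median apparent KD per design.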
# [1] = input ligand: theophylline 20 uM
# [2] = input ligand: tryptophan 2.4 mM
# [3] = input ligand: theophylline 2 mM
Sequence,apparent KD of MS2 coat protein (input ligand: arginine 13.2 mM) [nM],apparent KD of MS2 coat protein [1] [nM],apparent KD of MS2 coat protein [2] [nM],apparent KD of MS2 coat protein (input ligand: none) [nM],apparent KD of MS2 coat protein [3] [nM]
UGACAUUGCUCAGAUACCAGACAUGAGGAUCACCCAUGUACCAAGGUAACCGAAAGGCAUGUCCCUUGGCAGCUGAGCAAUGUCU [TheoBX 2 #MS2Left #Theo2 #StaticStem],13,18.9,11.9,–,–
AGCGUUCAGCUUAUACUGGACAAUGGGUGACGAGGACCGGUACGGCCGCCACUCGGGCGCCCGGUUACAUGAGGAUCACCCAUGU [Vedizaus],52.2,213,20.5,195,212
GCUAGGUCUACGGCCGCCACUAGACGUGGGUUUAACAUGAGGAUCACCCAUGUGCUACAGGCGCAUAGGACCGGGUAGACCUAGC [SSTB NP+V+V2 #10 +-Same Structure],532,713,51.3,414,928
UAAAUAAUCUGGGUGUAGGUAAUAACAGAUACCAGCCAGAUAACUGGCCCUUGGCAGCUGAUAACAUGAGGAUCACCCAUGUAAA [Mat - Same State Theophlline A - Mod of Eli - D20],47,114,55.6,–,–
GCAUGUUGGUGGUAUCUGCGAAGGCGGAAUCGAGGACCGGUACGGCCGCCACUCGGCGACAUGAGGAUCACCCAUGUGGUUAGGA [Exclusion - Tryptophan A (Freestyle 8)],18.6,170,203,238,658
ACAUAGAGAUUAAUCGUGGGCAUACUCGAUACCAGUAUUUUAACCUACCCUUGGCAGCGACAUGAGGAUCACCCAUGUGAGAUGA [XTheo A #9],21.2,25.1,23,–,–
UGAUGGUGCUGAAGGAGCGUGUAAGAACAAGAACAUGAGGAUCACCCAUGUAUUAAUUUAACACAGGUAGGUCGCGGUGUUAUUG [11.L],30.5,42.5,19.7,25.4,45.8
GCAUCCUAGUCGGCCGCCACUGGAUGUACCCAGUGCUGGUACAAACAUGAGGAUCACCCAUGUACCAGGACCGGGACUAGGAUGC [(Trp1)-(MT2)''-(T1)'-(MT2)'-(Ms2)-(Trp2)_Design3],23.6,16.4,9.93,12.7,12.3
AUUCAUGGAAACAUGACAUACAUAACCGGUCGAGGACCGGUACGGCCGCCACUCGGUUGGUGGCACAUGAGGAUCACCCAUGUUA [SS Tryp A #10],21.7,39.3,–,–,28.5
UACAUGAGGAUCACCCAUGUAUGAAUGGAUACCAGAUAAAAUAAGGUCCCUUGGCAGCUAGUGAAUCGAGGGUGGGUAUCAUGAU [#13 Exclusion-TheophyllineA],10.6,12.8,10.2,–,–
GGUGGUGUGACGGAUACCAGCCACCGCGGCAACGCAACAUGAGGAUCACCCAUGUUGGGUGGCCCUUGGCAGCUGUCGUGCGGCG [#1 Same State - Theophylline B Attempt #24 (HarryS)],40.1,91.2,53.9,–,–
CCGACGAUGACUAUGGGUCAGGAGUGCGCACGAGGACCGGUACGGCCGCCACUCGAGGAGUGGGACAUGAGGAUCACCCAUGUGG [X-TryptA-MS2@65],31.5,73.7,33.6,30,52.8
GUGAGCGCCGAACAUCGCUGGUCCUCUAUCCGAGGACCGGUACGGCCGCCACUCGACAUGAGGAUCACCCAUGUUGGCACUGGCG [Inbemama],9.22,13.4,–,–,11.7
GCUAGUGGCAGAAGGAGCGAGGCUACAUACGGGUACAUGAGGAUCACCCAUGUGGUGUGUACUCAGGUAGGUCGCUGCCACUAGC [SSAB NP+V+V2 #13 Same Structure],193,754,467,921,977
GUACACUAGUCGGCCGCCACUGUUACAUGAGGAUCACCCAUGUAGGAUCACCCAUGACAUGAGGAUAGGACCGGGACGCAUGAGG [Exclusion Tryptophan B],56.8,56.1,–,–,69
AGAUUUAUUCUGACCGGGCUCAUUCCUGAAGGAGCGCAGAACAAUGCAGGUAGGUCGCAGGACAUGAGGAUCACCCAUGUCAGGC [Inmainzais],15.5,30.2,24.6,22.1,27.2
GAAUAAAGUAGAACACAAGACUCCUGAGAAGGAGCGCAGUCAACUGCAGGUAGGUCGCUCAGGAACACAUGAGGAUCACCCAUGU [Disoonlate],16.9,30.4,23.9,26.6,32.3
ACAUGAGGAUCACCCAUGUGGCGACUUGAUACCAGACCCGCACUAGUCCCUUGGCAGCAACUACGUGUGGGACACCCAUGUUAAG [lplmullin],17.3,22.7,16,–,–
CAAUGCAGGUCGGCCGCCACUACACACAUGAGGAUCACCCAUGUAGUUACUGGGUGAAGUGGCAGUAGGACCGGGACCUGCAUAC [Brourdmod03],246,423,807,290,772
UGAUCCUACAGAGAUACCAGUGCCACUGAGUGACCAGACACAUGAGGAUCACCCAUGUAACACCCUUGGCAGCUCAACUAAAGGG [Same State Theophylline B GF17],16.2,20.5,21.4,–,–
UCUCACAUGAGGAUCACCCAUGUUAAGGCCCGAGGACCGGUACGGCCGCCACUCGUUGGAAGCCGGUAACGUACGAAUCUUCCGU [theeternabot_sameState_MS2_Trp_A_18],16.2,26.9,–,–,22.9
GCUAGUGGCAGAAGGAGCGAGGCGACAUACGGGUACAUGAGGAUCACCCAUGUGGUGUGUCCUCAGGUAGGUCGCUGCCACUAGC [SSAB NP+V+V2 #12],134,152,521,74.7,145
AAUUCCUAACAUGAGGAUCACCCAUGUGAAGGAGCGCCGAAUAAGGCAGGUAGGUCGCACAUGGAACAGCUGCGAAAGAGGAAAA [XArg-A 5 V1&2],11.9,15.3,12.7,13.2,12.5
UGUGUCGUCUGAAGGAGCGGCCCUUGAUCCUCGUGAGACAUGAGGAUCACCCAUGUCUCGGGCCAGGUAGGUCGCAGGCGGCACA [#25 Exclusion - Arginine B],11.5,17.2,12.6,11.9,12.8
UAUAUAUAAAUUGAUACCAGCGAGAAAACAUGAGGAUCACCCAUGUUCGCCCAUGUUAAGCGCCCUUGGCAGCAAUAUUAUUAUU [AstrosExyTheB#3],18.8,33.4,33.8,–,–
GAUGAACUAUGUGAUACCAGACAACAUGAGGAUCACCCAUGUGCGCGUCGUCCUCUGCCUGUCCCUUGGCAGCGUAUAGUUUAUC [XTheo B #13],77.9,110,47.8,–,–
UUUGAUAGGACAGAUACCAGCGUGUUGUUGAACAUGAGGAUCACCCAUGUAGUGAUCAGGCGCCCUUGGCAGCUGGUUUGUUAGG [7.N],265,363,366,–,–
CUACAUUUGUAGAAACCGGUCAACAAUAAUCGAGGACCGGUACGGCCGCCACUCGAUGUGAAAUCACAUGAGGAUCACCCAUGUA [Tryptophan A 18],18.9,23.8,–,–,19.8
GAUGAUAUUGCAGAUACCAGACACAUGAGGAUCACCCAUGUCGCUGAGAUGCUGGAUCGUGUCCCUUGGCAGCUGCGAUAUCAUC [Brazil],38.7,106,49.6,–,–
